For the assay, the target named is peptide 91a (human). Briefly: ITC.

Results on one molecule are retold here after PMC7217734 (Journal of biomolecular structure & dynamics, 2019).

For the molecule EELARLEREYQDLLNVKMALDIEIATYRKLLEALESR [peptide 374a], the Kd was found to be 3000 nM and the “stoichiometry N” value is approximately 1.
